Patent US20180256731A1, “NOVEL INSULIN ANALOG AND USE THEREOF” (HANMI PHARM. CO., LTD, priority 2013, published 2018)

Columns and labels:
Insulin receptor [1] = experiment: SPR (BIACORE 3000), receptor on CM5 chip; Test 2
Insulin receptor [2] = experiment: SPR (BIACORE 3000), receptor on CM5 chip; Test 4
Insulin receptor [3] = experiment: SPR (BIACORE 3000), receptor on CM5 chip; Test 1
Insulin receptor [4] = experiment: SPR (BIACORE 3000), receptor on CM5 chip; Test 3
Insulin receptor [5] = experiment: SPR (BIACORE 3000), receptor on CM5 chip; Test 5

koff (Insulin receptor [1]): 0.0101 s⁻¹
kon (Insulin receptor [1]): 229000 M⁻¹ s⁻¹
koff (Insulin receptor [2]): 0.0124 s⁻¹
kon (Insulin receptor [2]): 290000 M⁻¹ s⁻¹
koff (Insulin receptor [3]): 0.00747 s⁻¹
kon (Insulin receptor [3]): 221000 M⁻¹ s⁻¹
Kd (Insulin receptor [4]): 63.5 nM
koff (Insulin receptor [4]): 0.0107 s⁻¹
kon (Insulin receptor [4]): 176000 M⁻¹ s⁻¹
koff (Insulin receptor [5]): 0.0097 s⁻¹
kon (Insulin receptor [5]): 200000 M⁻¹ s⁻¹
Substance: Native human insulin (ligand)
